From paper PMC3833899 (Brain research, 2013)

Molecular target: Recombinant chick netrin-1 (chick, UniProt Q90922 26-606)
Experiment: retention on a 30 kD cut-off size exclusion

PRYQHTGAVYLLSASPQ [Integrin α3 peptide]
binding result: binds
